In US20040043949A1 one finds cell death, FACS analysis of living EGFP positive CHOP cells, (+) NS3 Protease, AnnexinV positive H9C2 cells, FACS, 24 hours (% more cells than control) and AnnexinV positive H9C2 cells, FACS, 24 hours, no VAD-fmk data, which are given here for two substances.

For assay [1], the target named is modified BID with an HCV NS3 cleavage site (human) (UniProt P55957). The assay can be described thus: cell-based or functional assay.
Assay [2] has as its target Mod.Caspase 3/172(NS5A/B) (human) (UniProt P42574). The assay can be described thus: cell-based or functional assay.

Take “HCV NS3/NS4A protease (from UniProt P27958 1027-1657; P27958 1658-1711) (enzyme)”: the cell death, FACS analysis of living EGFP positive CHOP cells, (+) NS3 Protease in assay [1] and in assay [2] was greater than 30 % cell death each time.
Consider “single-chain HCV protease (NS4A-NS3) (from UniProt P27958 1678-1689; P27958 1029-1207) (enzyme)”, for which, in assay [1], the AnnexinV positive H9C2 cells, FACS, 24 hours (% more cells than control) came out at 50 and the AnnexinV positive H9C2 cells, FACS, 24 hours, no VAD-fmk was 60%.
